Test results as given in US20090035281A1, “COMBINATION OF INTERLEUKIN-6 ANTAGONISTS AND ANTIPROLIFERATIVE DRUGS” (Universita Degli Studi "Magna Graecia" Di Catanzaro, priority 2005, published 2009).

B1: SANT-7: superantagonist of the IL-6 receptor, molecular variant of IL-6 totally incapable of binding gp130, sequence SEQ ID No. 4 (protein, listed as Homo sapiens)
chain: PVPPGEDSKDVAAPHRQPLTSSERIDKQIRDILDFISALRKETCNKSNMCESSKEADAFWNLNLPKMAEKDGCFYKGFNEETCLVKIITGLLEFEVYLEYLQNRFESSEEQARAVQMRTKDLIQFLQKKAKNLDAITTPDPTTNASLLTKLQAQNQWLQDMTTHLILRSFKEFLIRSLRALRAM

Assays:
[1] = test system: INA-6 MM cells in human foetal bone implant; assay: SCID-hu INA-6 mouse model of human MM, tumour growth by serum shuIL-6R; type: in vivo; settings: for reduction in serum shuIL-6R (marker of tumour growth) vs control group: s.c., SANT-7 3.3 mg/kg or Dex 1 mg/kg alone, 5 consecutive days; for tolerability in SCID-hu mice: treatment with single agent
Procedure: Male SCID C-17 mice aged from six to eight weeks (Taconic Germany, N.Y.) were housed and monitored in our Animal Research Facility. All the experimental procedures and protocols were approved by the Institutional Committee on the Treatment and Use of Animals. Human foetal femur transplants were implanted in SCID (SCID-hu) mice, as described in Urashima, M., et al.; Blood, 1997; 90(2): 754-65; Tassone, P., et al.; Blood, 2004. Four weeks after implantation, 2.5×10^6 INA-6 MM cells in 50 μl of PBS were injected into the foetal bone implant in the SCID-hu hosts. Serum levels of the interleukin-6 soluble receptor (shuIL-6R) (R & D Systems Inc., Minneapolis, Minn.) were monitored in the mice.
(§1) In these mice serum shuIL-6R was measured as a marker of tumour growth and disease severity, since it is released by the INA-6 cells. First, the pharmacokinetics of SANT-7 was determined.

[2] = test system: human IL-6-dependent multiple myeloma (MM) cell line, INA-6; assay: Cell proliferation assay ([3H]-thymidine incorporation), INA-6 cells with exogenous IL-6; type: cell-based; settings: INA-6, exogenous IL-6 present, 3 days' exposure
Procedure: The formation, characterisation and in-vitro culturing of the IL-6-dependent human MM cell line INA-6 is described in Burger, R., et al.; Hematol. J., 2001; 2:42-53. The cells were maintained in RPMI 1640 culture medium (GIBCO, Grand Island, N.Y.) added with 10% foetal calf serum (FCS, Hyclone, Logan, Utah), L-glutamine 2 mM (GIBCO), 100 μg/ml of streptomycin (GIBCO) and 100 U/ml of penicillin (GIBCO) in the presence of 2.5 ng/ml of IL-6 at 37° C. in a 5% CO2 atmosphere
(§2) Cell proliferation was measured by incorporation of [^3H]-thymidine (NEN Life Science Products, Boston, Mass.). Cells (2×10^4 cells/well) were incubated on 96-well culture plates in the presence or absence of 70-80% confluent BMSC at 37° C. with or without the study substance (in wells in triplicate) for 72 h. [^3H]-thymidine (0.5 μCi) was then added to each well for at least 8 h. Cells were collected on glass filters with an automatic cell collector (Cambridge Technology, Cambridge, Mass.) and counted using a Micro-Beta Trilux counter (Wallac, Gaithersburgh, Md.).
(§3) IL-6 has been identified as one of the main factors in the growth and survival of MM cells. […] INA-6 cells were seeded and cultured on 96-well plates in the presence of exogenous IL-6, and then, after 3 days' exposure of the cells to the drugs, cell proliferation and apoptosis were determined.

[3] = test system: human IL-6-dependent multiple myeloma (MM) cell line, INA-6; assay: Detection of apoptosis (annexin V-FITC / propidium iodide flow cytometry), INA-6 cells with exogenous IL-6; type: cell-based; settings: INA-6, exogenous IL-6 present, 3 days' exposure
Procedure: To detect the induction of cell death by apoptosis, double staining was performed with annexin V labelled with FITC and propidium iodide (PI). After treating 1×10^6 tumour cell for 48 h, the cells were washed with PBS and resuspended in 100 μl of HEPES buffer containing annexin V-FITC and propidium iodide (PI) (Annexin V-FLUOS staining kit; Roche Diagnostic, Indianapolis, Ind.). After 15 minutes' incubation at room temperature, the cells were analysed using a Coulter Epics XL flow cytometer to detect the presence of an apoptotic cell population staining positive for annexin V-FITC and negative for PI.
as §3, with “cells. INA-6 is a human myeloma cell line that requires exogenous IL-6 for growth in vitro (FIG. 1A).” for “cells.”

[4] = test system: INA-6 cells adhering to bone marrow stromal cells (BMSC); assay: Cell proliferation of INA-6 cells adhering to BMSC, no exogenous IL-6; type: cell-based, human; settings: 70-80% confluent BMSC, no exogenous IL-6, 3 days after treatment
Procedure: as §2
Since the paracrine production of IL-6 occurs when the MM cells adhere to BMSC (Uchiyama, H., et al.; Blood, 1993; 82:3712-3720), the supporting effect of BMSC for the in-vitro growth of INA-6 cells after exposure to the drugs was evaluated. The INA-6 cells were seeded on 70-80% confluent BMSC, in the absence of exogenous IL-6, and the cell proliferation was established 3 days after the treatment.

purified CD34+ HPC = assay: Clonogenic progenitor assays in methylcellulose; type: cell-based, human; settings: for CFC-GM: SANT-7 200 ng/ml, Dex 10^-5 M; for Total: total colonies
From the text: (§4) Peripheral blood mobilised CD34^+ HPC were isolated from leukapheresis products of patients with haematopoietic and non-haematopoietic tumours, treated with high-dose chemotherapy and G-CSF or GM-CSF. Peripheral blood mononuclear cells were obtained by centrifugation across a Ficoll density gradient (Seromed, Berlin, Germany), washed and submitted to positive selection using the CD34 Progenitor Cell Isolation Kit (Miltenyi Biotech, Bergish Gladbach, Germany). In brief, CD34^+ HPC were magnetically labelled indirectly using a primary monoclonal antibody conjugated with a hapten and an anti-hapten antibody coupled with MACS MicroBeads (Miltenyi). The labelled cells were subsequently enriched with the MiniMACS magnetic field.
The clonogenic progenitor assays were carried out in methylcellulose as described previously with minor modifications. In brief, 1×10^3 freshly isolated CD34^+ HCP were seeded in IMDM (GIBCO) containing 1% methylcellulose, 30% foetal calf serum (Hyclone), 1% bovin serum albumin (Sigma), L-glutamine 2 mM (GIBCO) and 2β-mercaptoethanol 10^−4 M (Stemcell Technologies Inc., Vancouver, Canada). To induce granulomonocytic or erythroid differentiation, the cells were stimulated with IL-3 (50 ng/ml), GM-CSF (100 ng/ml), G-CSF (100 ng/ml) or IL-3 (50 ng/ml), GM-CSF (100 ng/ml), SCF (50 ng/ml) ed Epo (3 U/ml), respectively. […] 1 ml aliquots were plated in triplicate on 35 mm culture plates (Falcon) at 37° C. in a 5% CO2 humidified atmosphere. After 14 days' culture, the granulomonocytic colonies (CFC-GM) and the erythroid colonies (BFU-E) were counted by examining the cultures under an inverted microscope.

[5] = In-vivo kinetics of SANT-7 after s.c. injection; parameters: species or system SCID-hu mouse
Procedure: A) Sant-7 (3.3 mg/kg) was injected s.c. into a SCID-hu mouse and its kinetics was evaluated with serial determinations of IL-6 in serum. B) Tumour growth in SCID-hu mice implanted with INA-6 cells was monitored with serial measurements of shuIL-6R. […] P values were obtained by comparison between the control groups and the groups treated with the combination. The data were expressed as mean±SE.
as §1

[6] = test system: human CD34+ Haematopoietic Progenitor Cells (HPC); assay: Liquid culture of CD34+ HPC, flow cytometric cell cycle (DNA content, PI) analysis; type: cell-based; settings: 6 days liquid culture with haemopoietins + IL-6
From the text: as §4

[7] = single s.c. injection 3.3 mg/kg

Molecule | reduction in serum shuIL-6R (marker of tumour growth) vs control group [1] | tolerability in SCID-hu mice [1] | growth inhibition of MM cells [2] | death by apoptosis in MM cells [3] | growth inhibition of INA-6 cells adhering to BMSC [4] | effect on generation of CFC-GM and BFU-E in response to haemopoietins (purified CD34+ HPC; CD34+ HPC, clonogenic assays) | CFC-GM (purified CD34+ HPC; colonies, IL3 + GM + G + IL6 (granulomonocytic differentiation), 1 × 10^3 cells/plate, day 14, mean ± SD) | CFC-GM (purified CD34+ HPC; colonies, IL3 + GM + SCF + Epo + IL6 (erythroid differentiation), 1 × 10^3 cells/plate, day 14, mean ± SD) | BFU-E (purified CD34+ HPC; colonies, IL3 + GM + SCF + Epo + IL6, 1 × 10^3 cells/plate, day 14, mean ± SD) | Total (purified CD34+ HPC; IL3 + GM + G + IL6, 1 × 10^3 cells/plate, day 14, mean ± SD) | Total (purified CD34+ HPC; IL3 + GM + SCF + Epo + IL6, 1 × 10^3 cells/plate, day 14, mean ± SD) | time drug remains in circulation after the injection [5, 7] | time to SANT-7 serum peak [5, 7] | clearance ([5]; subcutaneous administration) | apoptosis rate of CD34+ cells [6] | effect on cell proliferation (cell cycle) of CD34+ cells [6]
C[C@@H]1C[C@H]2[C@@H]3CCC4=CC(=O)C=C[C@]4(C)[C@@]3(F)[C@@H](O)C[C@]2(C)[C@@]1(O)C(=O)CO [Dex, dexamethasone, reference compound] | did not induce any significant reduction | well tolerated | neither modified cell proliferation | nor induced apoptosis | activity was inhibited | – | – | – | – | – | – | – | – | – | – | –
B1 | did not induce any significant reduction | well tolerated | high rates of growth inhibition | high rates | reduced the efficacy of the growth inhibition | does not interfere appreciably | 73 ± 2 | 21 ± 1 | 50 ± 2 | 73 ± 2 | 71 ± 1 | 4 h | 30 min | very rapid clearance | No significant apoptosis rate | does not significantly affect cell proliferation
